B1: F-box protein MET30 (Saccharomyces cerevisiae), P39014 (parent)
chain: MRRERQRMMSFEDKDKDDLDNSNSNNSSEMTDTAMMPPLKRLLITGSSDDLAQGSSGKKKMTMATRSPSSSPDLATNDSGTRVQPLPEYNFTKFCYRHNPDIQFSPTHTACYKQDLKRTQEINANIAKLPLQEQSDIHHIISKYSNSNDKIRKLILDGILSTSCFPQLSYISSLVTHMIKIDFISILPQELSLKILSYLDCQSLCNATRVCRKWQKLADDDRVWYHMCEQHIDRKCPNCGWGLPLLHMKRARIQQNSTGSSSNADIQTQTTRPWKVIYRERFKVESNWRKGHCRIQEFKGHMDGVLTLQFNYRLLFTGSYDSTIGIWDLFTGKLIRRLSGHSDGVKTLYFDDRKLITGSLDKTIRVWNYITGECISTYRGHSDSVLSVDSYQKVIVSGSADKTVKVWHVESRTCYTLRGHTEWVNCVKLHPKSFSCFSCSDDTTIRMWDIRTNSCLKVFRGHVGQVQKIIPLTIKDVENLATDNTSDGSSPQDDPTMTDGADESDTPSNEQETVLDENIPYPTHLLSCGLDNTIKLWDVKTGKCIRTQFGHVEGVWDIAADNFRIISGSHDGSIKVWDLQSGKCMHTFNGRRLQRETQHTQTQSLGDKVAPIACVCIGDSECFSGDEFGCVKMYKFDLND
partner: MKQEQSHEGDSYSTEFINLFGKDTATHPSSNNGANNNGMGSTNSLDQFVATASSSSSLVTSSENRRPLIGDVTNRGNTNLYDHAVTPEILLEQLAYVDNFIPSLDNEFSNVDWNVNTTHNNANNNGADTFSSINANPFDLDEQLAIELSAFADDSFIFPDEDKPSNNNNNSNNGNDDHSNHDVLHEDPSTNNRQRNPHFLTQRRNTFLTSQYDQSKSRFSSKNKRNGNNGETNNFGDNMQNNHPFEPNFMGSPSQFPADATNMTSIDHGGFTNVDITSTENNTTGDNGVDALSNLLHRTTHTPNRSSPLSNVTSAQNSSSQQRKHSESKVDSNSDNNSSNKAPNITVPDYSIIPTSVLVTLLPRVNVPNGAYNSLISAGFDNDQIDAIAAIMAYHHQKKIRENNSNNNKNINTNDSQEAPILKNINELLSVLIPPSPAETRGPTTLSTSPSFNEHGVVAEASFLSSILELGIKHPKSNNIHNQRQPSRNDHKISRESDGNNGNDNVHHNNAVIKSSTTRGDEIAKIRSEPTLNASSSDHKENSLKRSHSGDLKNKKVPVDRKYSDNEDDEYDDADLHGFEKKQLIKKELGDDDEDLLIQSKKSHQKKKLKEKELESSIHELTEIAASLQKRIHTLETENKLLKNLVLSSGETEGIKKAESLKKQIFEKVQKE

Variants of: B1
Conditions: with met4_yeast MET4, P32389

| Variant | effect of a mutation on the interaction |
| --- | --- |
| L386D;N425A;Q467A;L530D | decreasing interaction |

— IntAct's records for PubMed 15883825
